{
  "source": "paper PMC8427598",
  "about": "“Identification and Characterization of an Antennae-Specific Glutathione S-Transferase From the Indian Meal Moth” (Frontiers in Physiology, 2021)",
  "test_system": "O=[N+]([O-])c1ccc(Cl)c([N+](=O)[O-])c1",
  "assay": "purified protein",
  "conditions": "50 mM GSH, acetate-phosphate buffer pH 7.5 (b1, b25; b45 prints optimum pH 7.0), 35 °C",
  "data": [
    {"substance": "PiGSTd1 (Plodia interpunctella)", "values": [
      {"measurement": "Km", "value": "229.2 ± 18.05", "unit": "µM"}
    ]}
  ]
}
